According to patent US20160250307A1 (IMMATICS BIOTECHNOLOGIES, published 2016):

target: HLA-A*02 (human); assay: UV-ligand exchange, anti-b2m ELISA; grade: exchange yield >=50%

Peptide exchange yield, 50 to 75%:
YAFPKSITV
ALLNQHYQV
TLAAIIHGA
ALLEMDARL
TLLDSPIKV
SLWEGGVRGV
YLDDEKNWGL
KLYDLELIV
QLTPVLVSV
LLADIGGDPFAA
RLFPDGIVTV
SILDIVTKV
SLLSPEHLQYL
SLHNGVIQL
YLDKNLTVSV
TLLKKISEA
QLLPNLRAV
SLFEWFHPL
KLDNNLDSV
VVLDDKDYFL
SICNGVPMV
RLLDVLAPLV
RLFEENDVNL
YLWDLDHGFAGV
RMSDVVKGV
ALLGKIEKV
KLTDHLKYV
RLTESVLYL
YLITGNLEKL
RLPPDTLLQQV
HLAKVTAEV
SLIPAVLTV
VLSQVYSKV
TVMDIDTSGTFNV
RLAAFYSQV
NLASFIEQVAV
SLWSVARGV
NVFDGLVRV
TLYALSHAV
ALSSKPAEV
RLLDEQFAV
RMLIKLLEV
LLIDDEYKV
RILPKVLEV
GLAPGGLAVV
LLHEENFSV
SQADVIPAV
RLPDIPLRQV
KLSEAVTSV
SLAVLVPIV
SLAESSFDV
SMGDHLWVA
SVWFGPKEV
ALHEEVVGV
